Measurements as given in publication PMC7026264, “Crystal structures of N-terminal WRKY transcription factors and DNA complexes”.

Experiments:
[1] = biological target: T1, AtWRKY1-N (Arabidopsis, UniProt Q9SI37 108-169); assay: ITC; ITC: 25 mM HEPES pH 7.0, 100 mM NaCl, 20 C, 0.25 mM protein into 0.026 mM DNA; EMSA: 25 mM HEPES pH 7.0, 100 mM NaCl, 5% glycerol, 6 pmol DNA in 6 ul, 4 C 20 min; conditions: protein: recombinant; tags: C-terminal His; blunt
[2] = biological target: AtWRKY2-N (Arabidopsis, UniProt Q9FG77 270-332); assay: crystal structure; 2.4 A; zinc finger; ITC: 25 mM HEPES pH 7.0, 100 mM NaCl, 20 C, 0.25 mM protein into 0.026 mM DNA; EMSA: 25 mM HEPES pH 7.0, 100 mM NaCl, 5% glycerol, 6 pmol DNA in 6 ul, 4 C 20 min; conditions: protein: recombinant; tags: C-terminal His; 5' overhang 1 nt at each end
Chain of AtWRKY2-N (Q9FG77 270-332): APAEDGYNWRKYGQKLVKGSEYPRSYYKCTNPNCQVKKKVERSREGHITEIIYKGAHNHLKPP

[3] = biological target: AtWRKY33-N (Arabidopsis, UniProt Q8S8P5 185-242); assay: crystal structure; 3.0 A; zinc finger; ITC: 25 mM HEPES pH 7.0, 100 mM NaCl, 20 C, 0.25 mM protein into 0.026 mM DNA; EMSA: 25 mM HEPES pH 7.0, 100 mM NaCl, 5% glycerol, 6 pmol DNA in 6 ul, 4 C 20 min; conditions: protein: recombinant; tags: C-terminal His; 5' overhang 1 nt at each end
Chain of AtWRKY33-N (Q8S8P5 185-242): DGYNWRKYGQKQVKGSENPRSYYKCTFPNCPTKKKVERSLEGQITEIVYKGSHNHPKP

[4] = biological target: T1, AtWRKY1-N; assay: as above; conditions: protein: recombinant; tags: C-terminal His; 5' overhang 1 nt at each end
[5] = biological target: T1, AtWRKY1-N; assay: ITC; ITC: 25 mM HEPES pH 7.0, 100 mM NaCl, 20 C, 0.25 mM protein into 0.026 mM DNA; EMSA: 25 mM HEPES pH 7.0, 100 mM NaCl, 5% glycerol, 6 pmol DNA in 6 ul, 4 C 20 min; conditions: protein: recombinant; tags: C-terminal His; blunt; remark: listed apart in the source
[6] = biological target: AtWRKY1-C (Arabidopsis, UniProt Q9SI37 301-366); assay: as above; conditions: protein: recombinant; tags: C-terminal His; blunt
Chain of AtWRKY1-C (Q9SI37 301-366): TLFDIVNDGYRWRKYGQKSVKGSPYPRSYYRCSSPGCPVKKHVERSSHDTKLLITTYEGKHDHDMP

[7] = biological target: AtWRKY1 101-339 (Arabidopsis, UniProt Q9SI37-2 101-339); assay: ITC; N=0.5, two DNA per protein; 0.11 mM protein into 0.026 mM DNA; ITC: 25 mM HEPES pH 7.0, 100 mM NaCl, 20 C, 0.25 mM protein into 0.026 mM DNA; EMSA: 25 mM HEPES pH 7.0, 100 mM NaCl, 5% glycerol, 6 pmol DNA in 6 ul, 4 C 20 min; conditions: protein: recombinant; tags: C-terminal His; blunt
Chain of AtWRKY1 101-339 (Q9SI37 other isoform, or with tags, fused parts or gaps): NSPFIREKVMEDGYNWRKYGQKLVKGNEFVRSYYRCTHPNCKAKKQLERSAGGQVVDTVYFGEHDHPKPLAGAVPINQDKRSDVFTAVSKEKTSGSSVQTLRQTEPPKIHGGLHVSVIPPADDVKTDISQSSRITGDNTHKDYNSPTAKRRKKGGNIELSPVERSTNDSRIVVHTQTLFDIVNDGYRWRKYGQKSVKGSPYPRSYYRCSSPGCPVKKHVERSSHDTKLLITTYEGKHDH

[8] = biological target: T1, AtWRKY1-N; assay: ITC; ITC: 25 mM HEPES pH 7.0, 100 mM NaCl, 20 C, 0.25 mM protein into 0.026 mM DNA; EMSA: 25 mM HEPES pH 7.0, 100 mM NaCl, 5% glycerol, 6 pmol DNA in 6 ul, 4 C 20 min; conditions: protein: recombinant; tags: C-terminal His; blunt; remark: listed apart in the source
[9] = biological target: AtWRKY1-N K118A (Arabidopsis, UniProt Q9SI37 108-169, K118A); assay: EMSA; ITC: 25 mM HEPES pH 7.0, 100 mM NaCl, 20 C, 0.25 mM protein into 0.026 mM DNA; EMSA: 25 mM HEPES pH 7.0, 100 mM NaCl, 5% glycerol, 6 pmol DNA in 6 ul, 4 C 20 min; conditions: protein: recombinant; tags: C-terminal His; label: 5' Cy3 on strand 1; blunt
Chain of AtWRKY1-N K118A (Q9SI37 108-169 K118A): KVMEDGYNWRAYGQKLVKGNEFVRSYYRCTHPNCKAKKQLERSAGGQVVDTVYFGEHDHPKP

[10] = biological target: AtWRKY1-N Y119A (Arabidopsis, UniProt Q9SI37 108-169, Y119A); assay: as above; conditions: protein: recombinant; tags: C-terminal His; label: 5' Cy3 on strand 1; blunt
Chain of AtWRKY1-N Y119A (Q9SI37 108-169 Y119A): as the sequence (Q9SI37 108-169 K118A) above, with A11K, Y12A counted along it

[11] = biological target: AtWRKY1-N K144A (Arabidopsis, UniProt Q9SI37 108-169, K144A); assay: as above; conditions: protein: recombinant; tags: C-terminal His; label: 5' Cy3 on strand 1; blunt
Chain of AtWRKY1-N K144A (Q9SI37 108-169 K144A): as the sequence (Q9SI37 108-169 K118A) above, with A11K, K37A counted along it

[12] = biological target: AtWRKY1-N R117A (Arabidopsis, UniProt Q9SI37 108-169, R117A); assay: as above; conditions: protein: recombinant; tags: C-terminal His; label: 5' Cy3 on strand 1; blunt
Chain of AtWRKY1-N R117A (Q9SI37 108-169 R117A): as the sequence (Q9SI37 108-169 K118A) above, with R10A, A11K counted along it

[13] = biological target: AtWRKY1-N R135A (Arabidopsis, UniProt Q9SI37 108-169, R135A); assay: as above; conditions: protein: recombinant; tags: C-terminal His; label: 5' Cy3 on strand 1; blunt
Chain of AtWRKY1-N R135A (Q9SI37 108-169 R135A): as the sequence (Q9SI37 108-169 K118A) above, with A11K, R28A counted along it

[14] = biological target: AtWRKY1-N Q121A (Arabidopsis, UniProt Q9SI37 108-169, Q121A); assay: as above; conditions: protein: recombinant; tags: C-terminal His; label: 5' Cy3 on strand 1; blunt
Chain of AtWRKY1-N Q121A (Q9SI37 108-169 Q121A): as the sequence (Q9SI37 108-169 K118A) above, with A11K, Q14A counted along it

[15] = biological target: AtWRKY1-N Y133A (Arabidopsis, UniProt Q9SI37 108-169, Y133A); assay: as above; conditions: protein: recombinant; tags: C-terminal His; label: 5' Cy3 on strand 1; blunt
Chain of AtWRKY1-N Y133A (Q9SI37 108-169 Y133A): as the sequence (Q9SI37 108-169 K118A) above, with A11K, Y26A counted along it

[16] = biological target: AtWRKY1-N K122A (Arabidopsis, UniProt Q9SI37 108-169, K122A); assay: as above; conditions: protein: recombinant; tags: C-terminal His; label: 5' Cy3 on strand 1; blunt
Chain of AtWRKY1-N K122A (Q9SI37 108-169 K122A): as the sequence (Q9SI37 108-169 K118A) above, with A11K, K15A counted along it

T1 sequence (Q9SI37 108-169): as the sequence (Q9SI37 108-169 K118A) above, with A11K counted along it

B1: G6' to T6' (dsDNA)
DNA 1: GCGCTTGTCAAAGGCG
DNA 2: CGCCTTTGACAAGCGC
- binding signal [1]: 2.5 fold decrease in affinity vs W-box

B2: W-box DNA for crystallization (15 bp) (dsDNA)
DNA 1: AGCCTTTGACCAGCG
DNA 2: TCGCTGGTCAAAGGC
- binding result [2]: binds
- binding result [3]: binds
- binding result [4]: binds

B3: W-box DNA for ITC (dsDNA)
DNA 1: CGCCTTTGACCAGCGC
DNA 2: GCGCTGGTCAAAGGCG
- Kd [5]: ~0.1 µM
- Kd [6]: 1.3 µM
- Kd [7]: 0.5 µM

B4: T8' to A8' (dsDNA)
DNA 1: CGCCTTTGTCCAGCGC
DNA 2: GCGCTGGACAAAGGCG
- binding signal [8]: 12 fold decrease in affinity vs W-box

B5: T6T7 to C6G7 (dsDNA)
DNA 1: CGCCTCGGACCAGCGC
DNA 2: GCGCTGGTCCGAGGCG
- binding signal [8]: 4.5 fold decrease in affinity vs W-box

B6: W-box DNA for EMSA (dsDNA)
DNA 1: CGCCTTTGACCAGCGC
DNA 2: GCGCTGGTCAAAGGCG
- binding result [9]: binds
- binding result [10]: binds
- binding result [11]: no binding
- binding result [12]: binds
- binding result [13]: no binding
- binding result [14]: no binding
- binding result [15]: no binding
- binding result [16]: no binding

B7: G7'C9' to A7'A9' (dsDNA)
DNA 1: CGCCTTTTATCAGCGC
DNA 2: GCGCTGATAAAAGGCG
- Kd [5]: 7.6 µM
